Test results as given in PMC7935935, “Conservation of the glycogen metabolism pathway underlines a pivotal function of storage polysaccharides in Chlamydiae” (Communications Biology, 2021).

Legend:
GlgA–GlgB-WC = biological target: T1, GlgA–GlgB-WC (Waddlia chondrophila, UniProt D6YUJ8); assay: […]-glucosyl incorporation into glycogen; zymogram; format: cell-based; conditions: glycogen as acceptor, 30 °C; glycogen synthase domain; labelled compound
T1 construct: gene wcw_0437; natural GlgA-GlgB gene fusion, his-tagged, modified pET15b, E. coli BW25113 delta-glgA; crude extract on zymogram
T1 sequence (D6YUJ8 1-1463): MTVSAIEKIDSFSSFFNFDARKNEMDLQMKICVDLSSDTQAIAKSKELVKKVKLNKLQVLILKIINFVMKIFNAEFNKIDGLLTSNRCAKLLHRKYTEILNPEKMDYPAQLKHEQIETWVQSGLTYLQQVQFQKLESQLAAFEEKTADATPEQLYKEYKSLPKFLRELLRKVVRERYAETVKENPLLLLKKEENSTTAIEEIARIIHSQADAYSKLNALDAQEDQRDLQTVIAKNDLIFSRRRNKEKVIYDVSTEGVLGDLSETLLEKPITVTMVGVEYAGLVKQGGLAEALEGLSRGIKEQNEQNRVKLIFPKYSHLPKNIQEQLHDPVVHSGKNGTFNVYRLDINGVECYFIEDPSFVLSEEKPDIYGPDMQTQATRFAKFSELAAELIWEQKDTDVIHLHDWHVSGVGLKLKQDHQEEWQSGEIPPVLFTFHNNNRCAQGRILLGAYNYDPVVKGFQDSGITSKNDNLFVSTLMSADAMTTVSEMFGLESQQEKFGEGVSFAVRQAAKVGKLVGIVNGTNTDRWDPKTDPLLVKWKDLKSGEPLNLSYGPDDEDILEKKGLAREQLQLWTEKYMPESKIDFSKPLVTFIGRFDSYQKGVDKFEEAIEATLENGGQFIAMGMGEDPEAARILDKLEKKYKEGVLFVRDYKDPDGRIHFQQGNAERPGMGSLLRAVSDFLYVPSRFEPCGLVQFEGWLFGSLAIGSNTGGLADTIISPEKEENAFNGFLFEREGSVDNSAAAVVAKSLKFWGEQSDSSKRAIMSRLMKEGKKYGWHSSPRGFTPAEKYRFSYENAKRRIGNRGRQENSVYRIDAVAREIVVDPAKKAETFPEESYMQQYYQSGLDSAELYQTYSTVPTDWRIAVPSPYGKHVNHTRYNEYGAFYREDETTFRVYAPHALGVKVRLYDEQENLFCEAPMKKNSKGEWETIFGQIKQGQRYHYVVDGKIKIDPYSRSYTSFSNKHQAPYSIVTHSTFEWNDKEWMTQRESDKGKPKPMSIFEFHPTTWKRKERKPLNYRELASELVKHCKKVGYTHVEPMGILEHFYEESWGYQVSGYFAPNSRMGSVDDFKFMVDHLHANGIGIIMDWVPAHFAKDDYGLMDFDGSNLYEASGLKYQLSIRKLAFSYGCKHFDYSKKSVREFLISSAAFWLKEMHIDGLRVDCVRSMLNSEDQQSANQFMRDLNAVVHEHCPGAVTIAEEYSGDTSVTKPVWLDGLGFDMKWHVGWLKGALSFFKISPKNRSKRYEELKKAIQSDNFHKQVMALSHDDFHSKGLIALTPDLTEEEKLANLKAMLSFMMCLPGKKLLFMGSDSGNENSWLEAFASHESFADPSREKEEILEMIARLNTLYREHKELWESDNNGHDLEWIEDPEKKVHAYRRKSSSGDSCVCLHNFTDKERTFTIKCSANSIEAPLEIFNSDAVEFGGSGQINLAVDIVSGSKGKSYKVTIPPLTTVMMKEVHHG

GlgE-WC = biological target: T2, GlgE-WC (Waddlia chondrophila, UniProt D6YT22); assay: maltosyl transfer, FACE capillary electrophoresis and Pi release; format: biochemical; conditions: 30 °C
T2 sequence (D6YT22 1-649): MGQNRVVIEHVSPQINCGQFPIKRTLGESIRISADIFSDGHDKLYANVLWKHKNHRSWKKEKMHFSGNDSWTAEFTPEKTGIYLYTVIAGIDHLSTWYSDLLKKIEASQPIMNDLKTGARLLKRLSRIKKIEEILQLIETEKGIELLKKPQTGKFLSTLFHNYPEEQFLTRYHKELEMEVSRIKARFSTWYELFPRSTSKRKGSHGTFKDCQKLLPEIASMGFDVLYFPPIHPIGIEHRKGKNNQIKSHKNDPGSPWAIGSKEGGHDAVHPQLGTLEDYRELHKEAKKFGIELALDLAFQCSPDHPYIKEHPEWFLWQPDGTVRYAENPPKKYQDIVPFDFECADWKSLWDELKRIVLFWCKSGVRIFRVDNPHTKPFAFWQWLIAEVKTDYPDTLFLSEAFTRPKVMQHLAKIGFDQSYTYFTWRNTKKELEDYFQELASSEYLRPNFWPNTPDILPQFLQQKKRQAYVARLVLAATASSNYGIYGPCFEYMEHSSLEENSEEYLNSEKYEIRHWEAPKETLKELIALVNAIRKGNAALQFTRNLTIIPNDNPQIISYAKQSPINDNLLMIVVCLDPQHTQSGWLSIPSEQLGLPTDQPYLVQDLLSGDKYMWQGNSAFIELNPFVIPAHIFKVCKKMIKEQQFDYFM

[1] = tested on: O=P(O)(O)O[C@H]1O[C@H](CO)[C@@H](O[C@H]2O[C@H](CO)[C@@H](O)[C@H](O)[C@H]2O)[C@H](O)[C@H]1O; assay: purified protein; conditions: 10 mM maltoheptaose as acceptor per Fig. 5 legend (b24 text assigns the acceptors the other way round), pH 6.8, 30 °C, positive cooperativity
[2] = tested on: OC[C@H]1O[C@H](O[C@H]2O[C@H](CO)[C@@H](O)[C@H](O)[C@H]2O)[C@H](O)[C@@H](O)[C@@H]1O; assay: purified protein; conditions: TreS domain, 1 mM MnCl2, no ATP, 125 mM imidazole pH 8, 150 mM NaCl, 30 °C
[3] = biological target: bifunctional TreS-Mak of Estrella lausannensis (trehalose synthase fused to maltokinase) (Estrella lausannensis); assay: SEC; Superose 6 10/300 GL, PBS (10 mM orthophosphate, 140 mM NaCl, pH 7.4), 4 °C, 0.3 mL/min; apparent molecular weight against standard proteins
[4] = biological target: the molecule itself; assay: as above

**Q.** With `Nc1ncnc2c1ncn2[C@@H]1O[C@H](COP(=O)(O)OP(=O)(O)O[C@H]2O[C@H](CO)[C@@H](O)[C@H](O)[C@H]2O)[C@@H](O)[C@H]1O` [ADP-glc, ADP-glucose] as the molecule, how does the “14C-glucosyl incorporation into glycogen; zymogram” value (GlgA–GlgB-WC) read?
**A.** Its value is “is functional but highly specific for ADP-glucose”.

**Q.** Which “maltosyl transfer, FACE capillary electrophoresis and Pi release” value (GlgE-WC; acceptor with 1.6 mM M1P, also disproportionated without M1P) does the source give for `OC[C@H]1O[C@H](O[C@H]2[C@H](O)[C@@H](O)[C@@H](O[C@H]3[C@H](O)[C@@H](O)[C@@H](O[C@H]4[C@H](O)[C@@H](O)[C@@H](O[C@H]5[C@H](O)[C@@H](O)[C@@H](O[C@H]6[C@H](O)[C@@H](O)[C@@H](O[C@H]7[C@H](O)[C@@H](O)C(O)O[C@@H]7CO)O[C@@H]6CO)O[C@@H]5CO)O[C@@H]4CO)O[C@@H]3CO)O[C@@H]2CO)[C@H](O)[C@@H](O)[C@@H]1O` (stereo partly shown) [DP7, maltoheptaose] here?
**A.** Its value is “GlgE activities harbor an α-1,4-glucanotransferase activity exclusively with glucans composed of six or seven”.

**Q.** How did the “maltosyl transfer, FACE capillary electrophoresis and Pi release” value (GlgE-WC; 5 mM malto-oligosaccharide acceptors, 1.6 mM M1P) turn out when `O=P(O)(O)O[C@H]1O[C@H](CO)[C@@H](O[C@H]2O[C@H](CO)[C@@H](O)[C@H](O)[C@H]2O)[C@H](O)[C@H]1O` [M1P, maltose-1-phosphate] was run?
**A.** The value was “both GlgE activities enable the transfer the maltosyl moiety of M1P onto the glucan primer”.

**Q.** How did the K0.5 [1] turn out when GlgE-EL (Estrella lausannensis) was run?
**A.** The K0.5 was 0.33 ± 0.02 mM.

**Q.** How did the Km [2] turn out when “TreS-Mak of Estrella lausannensis (Estrella lausannensis)” was run?
**A.** Its Km is 42.3 ± 2.7 mM.

**Q.** Which stoichiometry N [3] does the source give for “bifunctional TreS-Mak of Estrella lausannensis (trehalose synthase fused to maltokinase) (enzyme)” here?
**A.** Its stoichiometry N is 2.

B1: GlgE of Estrella lausannensis (maltosyl-1-phosphate transferase; α-maltose-1-phosphate: 1,4-α-D-glucan 4-α-D-maltosyltransferase) (enzyme, UniProt A0A0H5DRC6 1-675, looked up)
chain: MSVSAAEKRQLLTQVKASGSMYTNTLHSIVIQNISPKPEPFGPAKRVLLEQVEVEADIFTDPHTKLEADLIVKAPGLRKTTRIPFHPLVNDRFKAVFVPDTPGTYSFFVEAWVNPAALWQEDLRKKQEARLDLTVDLQIGAALLVEVADLLPPEESVKLLQIAKKLREQKGAEAVAFDPEIARLGRLARPKSRQGVCSQEQEVFVTRKKALFSTWYELFPRSCSGTMRHGTFNDVVAKLPRISRMGFDVLYLPPIHPIGKTKRKGKNNALTALPDDPGSPWAVGSHEGGHDAIQRELGTLADFERLVKEAESLGIEIALDIALQCSPDHPYLKEHPEWFLKRPDGTYQYAENPPKKYEDIIPFHFTEDNKDTLFREILRIFLFWMKRGVRIFRVDNPHTKPFALWEYVIGEVRKVDSGVIFLAEAFTRPKIMHHLARIGFDQSYTYFTWRNTKWELTEYLTELTKTEARNYLRPNFFVNTPDILPESLQWGGRAAFLTRLILAATLSSSYGIYGPAFEQMLSEAVPGKEDYIDSEKYEIKPWDFEKKGTISETIEIVNRIRKENPALQATGNLEFYATDNDYLLAYGKQGPQGESLLIVVNLDHYHTQSGYVTLPLMHLGIQEKEPYLVDDLLSGERYIWEGERNYIQLSPHLVPAHIFRIRPKMLRENNFDYFI
notes: GlgE (maltosyl-1-phosphate transferase) of Estrella lausannensis, glgE gene amplified from genomic DNA; monomer of 75-76 kD; Cloned in pET15b; also called GlgE-EL; source: E. coli Rosetta (DE3)
**Q.** Which “stoichiometry N” value [4] does the source give for B1 here?
**A.** The value was 2.
